Test results reported in patent US20240424119A1, “USE OF POLYPEPTIDE IN RESISTANCE TO ADDICTION AND RELAPSE THEREOF, AND COMPLEX AND POLYPEPTIDE” (SHENZHEN CHENYANG BIOLOGICAL TECHNOLOGY CO., LTD, priority 2021, published 2024).
No end group written: not given here.

How the values were obtained:
[1] = test system: cocaine-induced behavioral sensitization in mice; experiment: Effects of different polypeptides on cocaine-induced behavioral sensitization in mice; format: in vivo; settings: 3 nmol/g i.p. 1 hour before cocaine (15 mg/kg) on sixth day of pause; TAT fusion peptides; n=10
Method: (§1) Then, the C-terminal of Pep1 to Pep5 was fused to the N-terminal of TAT respectively to obtain fusion peptides which could penetrate the blood-brain barrier.
In order to verify that the polypeptide of the invention is also effective against cocaine-induced addiction, the following tests were carried out:
Mice were given cocaine (15 mg/kg) or normal saline and then tested for 30 minutes, repeated for 5 days, and followed by a 5-day pause of administration. On the sixth day of the pause, 1 hour before cocaine administration, different polypeptides of Example 9 (3 nmol/g) were administered to mice via intraperitoneal injection (10 ml/kg) for drug induction, and a testing was carried out, and the results were shown in FIG. 18.

[2] = test system: morphine-induced CPP in mice; experiment: Effects of different polypeptides on morphine-induced CPP in mice; format: in vivo; settings: 3 nmol/g i.p. on Day 10, recorded on the second day after administration; TAT fusion peptides; n=12
Method: The CPP equipment used in the experiment has two equal-volume chambers (15 cm×15 cm×37 cm) with a movable door in the middle. Mice could freely shuttle between chambers during testing, or were limited to one side of the chamber during training. The interior of one chamber is black and the bottom is striped, while the other chamber is white and the bottom is latticed. All behavioral tests, including distance and time of activity, were recorded by a camera and calculated using the SMART Video Tracking System (Version 2.5; Panlab Technology for Biosearch, Spain).
On Day 1, mice were allowed to explore two chambers freely for 15 min without any treatment (before testing). On Day 2, 4, 6 and 8, control group (saline group) and model group (morphine group) received saline (10 mL/kg) and morphine (10 mg/kg), respectively. TAT group (3 nmol/g) and TAT-D2R-KT group (3 nmol/g) were injected (intraperitoneally, 10 ml/kg body weight) 1 hour before morphine injection. After injection, all mice were trained in the white chamber for 40 min. On Day 3, 5, 7 and 9, all mice were given normal saline, and then immediately placed in the black chamber for 40 min; on Day 10, after all mice explored freely for 15 min, the test ended, and the CPP scores (moving duration of mice) were shown in FIG. 6.
as §1
Mice were given morphine (1 mg/kg) or normal saline for 8 days, and different polypeptides (3 nmol/g) of Example 9 were administered to mice via intraperitoneal injection (10 ml/kg) on Day 10; the expression of morphine-induced CPP was recorded according to the CPP experimental method in Example 5 on the second day after administration, and the results were shown in FIG. 17.

[3] = test system: alcohol-induced behavioral sensitization in mice; experiment: Effects of different polypeptides on alcohol-induced behavioral sensitization in mice; format: in vivo; settings: 3 nmol/g i.p. 1 hour before alcohol (2.2 g/kg) on third day after training; TAT fusion peptides; n=10
Method: as §1
In order to verify that the polypeptide of the invention is also effective against alcohol-induced addiction, the following tests were carried out:
The training period lasted for 10 days, during which mice were administered alcohol (2.2 g/kg) or normal saline every other day and then immediately tested for 15 minutes. On the third day after training, 1 hour before alcohol administration, different polypeptides of Example 9 (3 nmol/g) were administered to mice via intraperitoneal injection (10 ml/kg) for drug induction, and a testing was carried out, and the results were shown in FIG. 19.

D2R/NR2B complex = biological target: T1, D2R/NR2B complex (Mus musculus, UniProt Q01097); experiment: Co-immunoprecipitation of hippocampus tissue from polypeptide-treated CPP mice and BS mice; format: in vivo
T1 construct: Co-immunoprecipitation was performed using a protein sample (100-500 μg protein) from hippocampus tissue; from tissue; host or cells: hippocampus tissue of CPP and BS mice treated in vivo
Method: Co-immunoprecipitation was performed using a protein sample (100-500 μg protein) from hippocampus tissue. NR2B and D1R or D2R were precipitated using an anti-NR2B and D2R, D2R or NR2B and 25 μl protein A/G+agarose bead slurry (SantaCruz Biotechnology, sc-2001), respectively.
The protein was then isolated on 8% SDS-PAGE gel and detected with a mouse antibody against NR2B and D2R. HRP-coupled secondary antibody and enhanced chemiluminescence method were used to detect the protein. Density analysis of bands was performed using image laboratory software.
In order to verify the effect of KT polypeptide of D2R on the D2R/NR2B complex in vivo, the C terminal of the region (K211-T225) was fused to the N terminal of transduction domain of HIV-1-type Tat protein (as set forth in SEQ ID NO: 6, hereinafter referred to as TAT) to obtain a fusion protein which can permeate blood-brain barrier, named TAT-D2R-KT.
CPP mice and BS mice were treated with TAT-D2R-KT respectively, and mice treated with TAT only were used as control (all treated by single intraperitoneal administration, 10 ml/kg body weight, medicament concentration 3 nmol/g). After 1 hour of treatment, analysis was performed according to the co-immunoprecipitation method in Example 1, and the results were shown in FIG. 4.

NR2B = biological target: T2, NR2B (Mus musculus, UniProt Q01097); experiment: GST-pulldown of NR2B from hippocampus extract by GST fusion proteins of D2R regions; format: binding; settings: 500 μg hippocampus extract, overnight, 4° C.
T2 construct: from tissue; host or cells: hippocampus extract
Method: In order to search for the physical interaction site between D2R and NR2B, cDNA fragments of the CT region of D2R (T428-C443) and the third intracellular loop (IL3) region of D2R (K211-Q373) were first obtained via the D2R full-length cDNA clone (Genbank Accession No.: M29066.1). These fragments were subcloned to the BamH1/EcoR1 or BamH1/Xho1 site of a pGEX-4T-3 plasmid (YouBio, Item No: VT1255). Initiation methionine residue and termination codon were added as appropriate. All constructs were resequenced to confirm that splice fusion was achieved appropriately. The GST fusion protein containing the IL3 region of D2R (GST-D2R-IL3) and the GST fusion protein containing the CT region of D2R (GST-D2R-CT) were obtained by using E.coli BL21 viable cells (AlpalifeBio, Item No: KTSM104L) for expression and purifying them from bacterial lysate, wherein the specific positions of the coding sequences of IL3 region and CT region on D2R were shown in FIG. 2.
500 μg of dissolved hippocampus extract was diluted with 1×PBS/0.1% Triton X-100 and incubated overnight with 20 μl protein GST resin (TransGen Biotech, Item No: N21220, Beijing, China) saturated with GST protein only or with the prepared 15 µg GST fusion protein at 4° C. Beads were washed 1-8 times with 1×PBS/0.1% Triton X-100. Binding proteins were eluted with 2×loading buffer, separated by SDS-PAGE, and subjected to Western blot with respective antibodies thereof, and the results were shown in A of FIG. 3.
Next, in order to further explore the interaction sequence/site between D2R and NR2B, the IL3 region was divided into KVC (K211-V270) region of D2R, ES (E271-S321) region of D2R and PQ (P322-Q373) region of D2R.
According to the method in the present Example, a pulldown analysis was performed using a GST fusion protein containing the KVC region of D2R (GST-D2R-KVC), a GST fusion protein containing the ES region of D2R (GST-D2R-ES), and a GST fusion protein containing the PQ region of D2R (GST-D2R-PQ), and the results of Western blot were shown in B of FIG. 3.
Further, the KVC region was divided into KT (K211-T225) region of D2R, KL (K226-L240) region of D2R, KV (K241-V255) region of D2R, and IV (1256-V270) region of D2R.
According to the method in the present Example, a pulldown analysis was performed using a GST fusion protein containing the KT region of D2R (GST-D2R-KT), the GST fusion protein containing the KL region of D2R (GST-D2R-KL), a GST fusion protein containing the KV region of D2R (GST-D2R-KV), and a GST fusion protein containing the IV region of D2R (GST-D2R-IV), and the results of Western blot were shown in C of FIG. 3.

binding of D2R to NR2B = binding of D2R to NR2B (Homo sapiens, UniProt Q13224); settings: Liu et al., Neuron 52, 897-909, FIGS. 3M and 3N; cited from earlier work
Sequence of binding of D2R to NR2B (Q13224 27-1484): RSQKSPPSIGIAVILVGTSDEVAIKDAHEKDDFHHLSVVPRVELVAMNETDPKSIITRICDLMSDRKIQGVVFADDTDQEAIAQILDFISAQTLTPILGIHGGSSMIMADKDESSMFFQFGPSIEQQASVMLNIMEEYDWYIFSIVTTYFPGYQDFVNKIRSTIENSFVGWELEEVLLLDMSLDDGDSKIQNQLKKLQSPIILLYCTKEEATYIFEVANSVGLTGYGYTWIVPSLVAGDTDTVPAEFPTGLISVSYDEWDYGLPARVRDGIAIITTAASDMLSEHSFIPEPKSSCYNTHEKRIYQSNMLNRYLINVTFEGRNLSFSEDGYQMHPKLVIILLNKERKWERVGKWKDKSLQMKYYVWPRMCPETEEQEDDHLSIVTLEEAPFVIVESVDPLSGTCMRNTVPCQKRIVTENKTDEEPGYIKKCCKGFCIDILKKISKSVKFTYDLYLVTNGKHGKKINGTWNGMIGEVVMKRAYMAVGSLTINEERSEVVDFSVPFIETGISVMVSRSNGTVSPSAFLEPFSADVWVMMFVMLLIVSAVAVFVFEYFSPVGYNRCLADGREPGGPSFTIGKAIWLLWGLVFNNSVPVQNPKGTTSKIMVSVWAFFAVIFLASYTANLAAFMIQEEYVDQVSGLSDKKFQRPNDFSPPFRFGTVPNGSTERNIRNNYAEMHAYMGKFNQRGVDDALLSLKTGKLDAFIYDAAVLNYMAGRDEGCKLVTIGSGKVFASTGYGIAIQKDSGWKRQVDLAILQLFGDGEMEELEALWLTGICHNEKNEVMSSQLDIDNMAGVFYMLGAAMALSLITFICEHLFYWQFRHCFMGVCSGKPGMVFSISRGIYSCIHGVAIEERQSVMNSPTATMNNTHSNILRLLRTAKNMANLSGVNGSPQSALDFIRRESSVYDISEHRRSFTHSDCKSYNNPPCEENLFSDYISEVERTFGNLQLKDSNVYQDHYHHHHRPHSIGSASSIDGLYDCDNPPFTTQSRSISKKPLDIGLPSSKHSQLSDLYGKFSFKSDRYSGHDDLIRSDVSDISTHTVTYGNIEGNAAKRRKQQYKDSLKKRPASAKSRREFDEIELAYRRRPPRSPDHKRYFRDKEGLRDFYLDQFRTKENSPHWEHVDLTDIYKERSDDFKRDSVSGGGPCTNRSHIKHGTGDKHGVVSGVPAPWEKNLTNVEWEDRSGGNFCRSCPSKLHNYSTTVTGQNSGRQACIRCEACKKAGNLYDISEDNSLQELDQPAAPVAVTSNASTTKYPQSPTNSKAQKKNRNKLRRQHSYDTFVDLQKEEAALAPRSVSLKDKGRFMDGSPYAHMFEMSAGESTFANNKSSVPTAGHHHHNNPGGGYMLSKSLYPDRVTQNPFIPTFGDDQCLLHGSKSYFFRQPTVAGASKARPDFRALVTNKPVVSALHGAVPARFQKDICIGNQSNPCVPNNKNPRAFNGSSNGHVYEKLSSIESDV

T2 sequence (Q01097 27-1482, other chains not shown): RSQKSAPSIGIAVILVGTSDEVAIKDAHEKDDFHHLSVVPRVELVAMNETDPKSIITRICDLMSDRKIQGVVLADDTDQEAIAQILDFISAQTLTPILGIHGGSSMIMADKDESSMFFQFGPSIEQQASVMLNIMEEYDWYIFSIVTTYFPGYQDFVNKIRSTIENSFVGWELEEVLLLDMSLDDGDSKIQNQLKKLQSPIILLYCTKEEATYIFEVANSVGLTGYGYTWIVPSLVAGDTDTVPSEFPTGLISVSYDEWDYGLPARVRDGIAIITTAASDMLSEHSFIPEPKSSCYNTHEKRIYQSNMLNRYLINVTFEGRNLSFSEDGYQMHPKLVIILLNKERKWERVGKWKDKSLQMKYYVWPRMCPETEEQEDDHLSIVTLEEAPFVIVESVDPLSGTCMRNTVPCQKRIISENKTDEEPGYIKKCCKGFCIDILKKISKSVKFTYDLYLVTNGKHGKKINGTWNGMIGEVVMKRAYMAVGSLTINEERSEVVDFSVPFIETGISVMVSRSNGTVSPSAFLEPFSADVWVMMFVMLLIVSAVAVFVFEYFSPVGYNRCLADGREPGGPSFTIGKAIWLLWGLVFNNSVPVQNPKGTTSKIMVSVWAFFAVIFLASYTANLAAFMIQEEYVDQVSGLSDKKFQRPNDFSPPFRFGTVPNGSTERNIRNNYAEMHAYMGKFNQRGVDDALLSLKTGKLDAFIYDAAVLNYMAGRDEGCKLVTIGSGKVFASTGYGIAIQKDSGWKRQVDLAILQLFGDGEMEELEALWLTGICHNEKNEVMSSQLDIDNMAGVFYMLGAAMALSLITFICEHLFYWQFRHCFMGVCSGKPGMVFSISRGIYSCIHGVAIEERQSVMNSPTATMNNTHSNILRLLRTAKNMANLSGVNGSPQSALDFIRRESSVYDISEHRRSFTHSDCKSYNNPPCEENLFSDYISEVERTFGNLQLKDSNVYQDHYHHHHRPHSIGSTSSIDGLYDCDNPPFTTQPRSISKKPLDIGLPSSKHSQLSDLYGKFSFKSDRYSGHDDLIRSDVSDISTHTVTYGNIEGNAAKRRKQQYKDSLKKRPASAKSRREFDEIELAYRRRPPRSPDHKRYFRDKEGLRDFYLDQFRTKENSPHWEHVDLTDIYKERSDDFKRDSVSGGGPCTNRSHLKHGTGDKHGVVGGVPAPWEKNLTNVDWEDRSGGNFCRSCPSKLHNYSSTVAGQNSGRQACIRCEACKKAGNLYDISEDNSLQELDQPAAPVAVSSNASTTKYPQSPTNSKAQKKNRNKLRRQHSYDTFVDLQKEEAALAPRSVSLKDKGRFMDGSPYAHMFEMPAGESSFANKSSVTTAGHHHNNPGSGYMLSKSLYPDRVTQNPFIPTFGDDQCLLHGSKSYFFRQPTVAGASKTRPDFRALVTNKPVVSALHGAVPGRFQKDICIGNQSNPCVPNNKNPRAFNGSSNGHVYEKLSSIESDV
T1 sequence (Q01097 27-1482, other chains not shown): as above

For “KIYIVLRRRRKRVNT [Pep1, KT polypeptide, K211-T225 of the IL3 region of D2R; tested in vivo fused to TAT]”, the “expression of sensitization behavior (cocaine-induced)” value [1] was “significantly inhibited the expression of sensitization behavior”, the “activity distance of morphine-CPP mice” value [2] was “significantly reduced the activity distance” and the “expression of sensitization behavior (alcohol-induced)” value [3] was “significantly inhibited the expression of sensitization behavior”. The “D2R/NR2B interaction in hippocampus tissue (co-immunoprecipitation)” value (D2R/NR2B complex; CPP mice and BS mice, single intraperitoneal administration 3 nmol/g, 1 hour after treatment, TAT only as control) was “competitively disrupted the D2R/NR2B interaction” and the “interaction between D2R and NR2B” value (D2R/NR2B complex; summary statement of the inventors' finding, no conditions given) was “successfully reduced the interaction between D2R and NR2B”.

In the case of “KL region of D2R: GST fusion protein containing the KL region of D2R (K226-L240) (KRSSRAFRAHLRAPL; also: GST fusion; UniProt P14416 226-240, looked up, fragment)”, the “precipitation of NR2B by GST fusion protein (pulldown, Western blot)” value (from here on “precipitation of NR2B”) (NR2B) is reported as “could not be precipitated”.

With “KT region of D2R: GST fusion protein containing the KT region of D2R (K211-T225) (KIYIVLRRRRKRVNT; also: GST fusion)” the “precipitation of NR2B” value (NR2B) was “precipitated with affinity”.

For “KVC region of D2R: GST fusion protein containing the KVC region of D2R (K211-V270) (KIYIVLRRRRKRVNTKRSSRAFRAHLRAPLKGNCTHPEDMKLCTVIMKSNGSFPVNRRRV; cysteine pairing not given here; also: GST fusion)”, the “precipitation of NR2B” value (NR2B) was “precipitated with affinity”.

For “P4: Liu et al. polypeptide of IL3 from D2R (1210-K226) lacking the motif TKRSSRAFRA (IKIYIVLRRRRKRVNTK; UniProt P14416 210-226, looked up, fragment) [Pep P4]”, the “prevention of the binding of D2R to NR2B” value (binding of D2R to NR2B) is listed as “had no preventing effect”.

In the case of “P5: Liu et al. polypeptide of IL3 from D2R containing motif T225-A234 (TKRSSRAFRA; UniProt P14416 225-234, looked up, fragment) [Pep P5]”, the “prevention of the binding of D2R to NR2B” value (binding of D2R to NR2B) is listed as “successfully prevented the binding of D2R to NR2B”.

B1: IL3 region of D2R: GST fusion protein containing the IL3 region of D2R (K211-Q373) (protein)
chain: KIYIVLRRRRKRVNTKRSSRAFRAHLRAPLKGNCTHPEDMKLCTVIMKSNGSFPVNRRRVEAARRAQELEMEMLSSTSPPERTRYSPIPPSHHQLTLPDPSHHGLHSTPDSPAKPEKNGHAKDHPKIAKIFEIQTMPNGKTRTSLKTMSRRKLSQQKEKKATQ
modifications: left off: a dimerising Fc or GST; large carriers; small tags and cut ends
In the case of B1, the “precipitation of NR2B” value (NR2B) is reported as “precipitated with affinity”.
